B1: library; numbered along this chain (parent)
chain: MAAAGGARLLRAASAVLGGPAGRWLHHAGSRAGSSGLLRNRGPGGSAEASRSLSVSARARSSSEDKITVHFINRDGETLTTKGKVGDSLLDVVVENNLDIDGFGACEGTLACSTCHLIFEDHIYEKLDAITDEENDMLDLAYGLTDRSRLGCQICLTKSMDNMTVRVPETVADARQSIDVGKTS

Variants of: B1
Assay: scaled log2 fold change in cell abundance, elesclomol vs control (0 = silent mean, 1 = nonsense mean) (scaled log2 ratio); higher = higher viability under elesclomol (loss of FDX1 cuproptosis function)
Details: glucose 10 mM
[1] = with HEK293T FDX1 KO, elesclomol 40 nM, 11 days
[2] = with ABC1 FDX1 KO, elesclomol 5 nM, 14 days
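Further: variant abundance is its share of total variant reads in each endpoint sample, from next-generation sequencing of the integrated ORF PCR-amplified out of genomic DNA.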

Variant | scaled log2 fold change [1] | scaled log2 fold change [2]
R31L | -0.385 | –
R31D | 0.39 | –
G29L | 0.376 | –
G29Q | 0.00954 | –
G29H | -0.53 | –
G29N | 1.01 | –
S30W | -0.103 | –
S30P | -0.513 | –
P20R | 0.465 | –
P20V | 0.328 | –
T157W | -0.456 | –
L9A | 0.241 | –
S14N | 0.029 | –
V55A | -0.0113 | –
R60D | 0.0454 | –
S88P | -0.895 | –
S88M | 0.379 | –
S88K | -0.315 | –
S88H | -0.0956 | –
S88D | 0.11 | –
L37I | 1.2 | –
L37A | 0.765 | –
L37N | -0.668 | –
L25F | 0.845 | –

Variant | scaled log2 fold change [1] | scaled log2 fold change [2]
D179E | 0.0611 | -0.000144
D179I | 0.926 | -0.885
D179F | 0.995 | -0.352
D179C | -0.227 | 0.369
D179H | – | 0.224
D179W | – | 0.235
D179M | -0.494 | 0.0418
D179T | 0.00101 | 0.106
D179Q | -0.984 | 0.442
D179N | – | 0.063
D179L | 1.12 | 0.0184
D179K | -0.385 | 0.53
D179G | 0.304 | 0.226
D179Y | -0.339 | 0.0967
D179R | -0.221 | 0.498
D179S | 0.929 | 0.558
D179P | 0.0267 | -0.26
D179A | -0.278 | -0.393
D179V | 0.172 | -0.0481
T78A | -1.2 | –
T78F | -0.765 | –
A15R | -0.519 | –
G76W | -0.575 | –
A129N | 0.865 | –

Variant | scaled log2 fold change [1] | scaled log2 fold change [2]
R51I | 0.315 | –
E125I | -0.618 | –
P168G | -0.0258 | –
S177A | – | -0.0907
S177E | -0.019 | -0.0815
S177T | -0.492 | -0.0709
S177P | -0.486 | -0.213
S177H | -0.562 | 0.139
S177C | – | -0.309
S177Q | -0.314 | 0.143
S177K | -0.228 | 0.281
S177R | -0.798 | -0.0538
S177L | -0.529 | -0.34
S177D | -0.675 | -1.44
S177N | 0.0839 | 0.00267
S177I | 0.665 | -0.08
S177G | 0.0748 | -0.315
S177M | 0.0434 | -0.566
S177F | -0.0862 | -0.0241
S177V | 0.49 | -0.287
S177Y | 0.126 | -1.05
S177W | 0.264 | 0.0273
S50F | -0.396 | –
S50V | -0.0587 | –

Variant | scaled log2 fold change [1] | scaled log2 fold change [2]
A57P | -0.118 | –
L127C | 0.0207 | –
G181T | -0.186 | 0.225
G181M | 0.389 | -1.35
G181L | – | 0.185
G181R | 0.814 | -0.0624
G181E | -0.4 | -0.223
G181H | 0.112 | -0.157
G181S | 0.902 | 0.113
G181W | 0.364 | 0.226
G181F | 0.167 | 0.316
G181Q | -0.21 | -0.419
G181Y | -0.568 | 0.093
G181A | -0.352 | -0.623
G181K | -0.659 | 0.227
G181P | -0.548 | -0.164
G181D | -0.438 | 0.217
G181V | – | -0.396
G181N | – | 0.125
G181I | 0.0446 | 0.268
G181C | -0.501 | -0.0449
E107S | -0.279 | –
A4P | -0.59 | –
D75G | 0.0557 | –

Variant | scaled log2 fold change [1] | scaled log2 fold change [2]
D75P | -0.0681 | –
K182E | -1.19 | -0.363
K182G | – | 0.289
K182I | 0.677 | 0.114
K182D | – | 0.0891
K182Y | -0.398 | 0.0751
K182Q | -0.145 | 0.399
K182R | 0.0141 | -0.345
K182V | 0.182 | -0.251
K182S | -0.584 | 0.0077
K182M | -0.0296 | -0.000782
K182P | – | 0.201
K182C | -0.334 | -0.0381
K182L | 0.171 | -0.0698
K182T | -0.0291 | 0.134
K182F | -0.11 | 0.103
K182A | -0.691 | 0.0976
K182H | -0.354 | -0.181
K182N | 0.75 | 0.127
K182W | 0.909 | 0.0276
V16H | 0.416 | –
N40G | -0.0433 | –
N40H | -0.707 | –
N40A | 1.14 | –

Variant | scaled log2 fold change [1] | scaled log2 fold change [2]
L89I | -0.0352 | –
S62V | -0.946 | –
S62P | 0.152 | –
G33D | 0.213 | –
G22D | 0.368 | –
G22S | 1.21 | –
A21W | 0.402 | –
S61T | 0.136 | –
S61L | 0.17 | –
S61A | 0.782 | –
S61H | 1.68 | –
V171G | 0.349 | –
T183V | -0.191 | 0.00691
T183M | -0.119 | -0.197
T183D | -0.222 | 0.0532
T183I | -0.426 | 0.0224
T183G | -1.07 | 0.353
T183A | -0.711 | -0.44
T183E | -0.187 | -1.02
T183C | -0.686 | 0.0469
T183K | -0.436 | -0.157
T183L | -0.253 | -0.0402
T183W | 0.214 | -0.19
T183N | – | -0.0614

Variant | scaled log2 fold change [1] | scaled log2 fold change [2]
T183S | -0.869 | 0.172
T183F | -0.199 | 0.0658
T183H | -0.49 | -0.16
T183Y | 0.0186 | -0.296
T183Q | – | -0.0766
T183R | -0.367 | 0.102
T183P | – | 0.166
R175W | -0.0023 | 0.307
R175V | -0.0442 | 0.472
R175Y | -0.118 | 0.225
H26I | 0.477 | –
H26V | 0.418 | –
Q176A | 0.8 | 0.239
Q176P | 0.159 | 0.375
Q176T | -0.279 | -0.0483
Q176I | -0.471 | 0.324
Q176D | -0.177 | -0.118
Q176E | -0.685 | 0.157
Q176Y | 1.3 | 0.0438
Q176L | -0.65 | -0.0736
Q176W | 0.328 | -0.225
Q176H | 0.909 | -0.0199
Q176N | 1.21 | -0.0287
Q176M | – | 0.291

Variant | scaled log2 fold change [1] | scaled log2 fold change [2]
Q176C | -0.158 | 0.128
Q176G | -0.11 | -0.184
Q176R | 0.492 | -0.155
Q176F | 0.182 | -0.29
Q176V | -0.626 | 0.192
Q176K | 0.463 | 0.426
Q176S | -0.0154 | -0.0172
D173I | 0.102 | –
V180G | -0.341 | 0.144
V180H | 1.19 | -0.37
V180C | 0.216 | 0.235
V180A | 2.72 | -0.00321
V180E | -0.141 | -0.352
V180D | – | 0.293
V180T | -0.33 | 0.143
V180I | – | 0.213
V180N | -0.0838 | 0.00503
V180K | 0.164 | -0.341
V180Q | -0.00162 | 0.0492
V180M | 0.491 | 0.313
V180Y | 0.873 | -0.084
V180W | 0.322 | -0.111
V180F | 0.0689 | 0.0635
V180S | -1.45 | -0.754

Variant | scaled log2 fold change [1] | scaled log2 fold change [2]
V180R | -0.285 | -0.02
V180L | -0.104 | -0.0572
V180P | 0.824 | -1.19
I178H | 0.244 | -0.366
I178L | -0.187 | 0.552
I178C | -0.695 | 0.576
I178S | 0.0683 | 0.197
I178K | 1.24 | 0.421
I178A | 0.476 | -0.325
I178V | 0.0591 | -0.343
I178D | 1.21 | 0.156
I178Y | 0.141 | -1.49
I178T | -0.626 | 0.00283
I178N | 0.216 | 0.142
I178R | -0.46 | 0.265
I178P | 0.399 | -0.0627
I178Q | 0.28 | -0.0255
I178F | 0.801 | -0.214
I178G | – | -0.381
I178M | 0.0752 | -0.147
I178E | -0.114 | 0.2
I178W | -0.636 | 0.246
W24S | -0.637 | –
W24Y | 0.0942 | –

Variant | scaled log2 fold change [1] | scaled log2 fold change [2]
W24D | -0.665 | –
S184A | 0.908 | 0.168
S184Q | -0.0365 | -0.0164
S184D | 0.845 | -0.159
S184F | -0.432 | 0.3
S184G | -0.25 | 0.207
S184M | 0.661 | 0.00413
S184T | -0.512 | -0.0663
S184I | -0.259 | 0.126
S184W | 0.713 | 0.0507
S184R | -0.427 | 0.0521
S184H | -0.0277 | 0.0751
S184V | 0.648 | 0.362
S184K | 0.0933 | -0.0652
S184N | 0.0759 | 0.136
S184L | 0.57 | -0.241
S184E | 1.03 | -0.0286
S184P | 0.83 | 0.326
S184C | – | 0.145
S184Y | 0.879 | -0.125
